# In patent US20260226168A1 (CHIA TAI TIANQING PHARMACEUTICAL GROUP, published 2026):
# B1: GC35 (bispecific antibody, human IgG1, kappa, L234A L235A)
# heavy: EVQLVQSGAEVVKPGASVKMSCKASGYTFTNYVMHWVKQAPGQGLEWMGYFNPYNDGTNYNEKFKGRVTLTSDTSANTAYMELSSLRSEDTAVYYCARGGVRRYFDVWGQGTTVTVSSASTKGPSVFPLAPSSKSTSGGTAALGCLVKDYFPEPVTVSWNSGALTSGVHTFPAVLQSSGLYSLSSVVTVPSSSLGTQTYICNVNHKPSNTKVDKKVEPKSCDKTHTCPPCPAPEAAGGPSVFLFPPKPKDTLMISRTPEVTCVVVDVSHEDPEVKFNWYVDGVEVHNAKTKPREEQYNSTYRVVSVLTVLHQDWLNGKEYKCKVSNKALAAPIEKTISKAKGQPREPQVCTLPPSREEMTKNQVSLSCAVKGFYPSDIAVEWESNGQPENNYKTTPPVLDSDGSFFLVSKLTVDKSRWQQGNVFSCSVMHEALHNHYTQKSLSLSPGK
# light: DIQMTQSPSSLSASVGDRVTITCRASQDIGSNLNWLQLGPGGAIKRLIYATFSLDSGVPSRFSGSRSGSDYTLTISSLQPEDFVDYYCQQYANFPPTFGGGTKVEIKRTVAAPSVFIFPPSDEQLKSGTASVVCLLNNFYPREAKVQWKVDNALQSGNSQESVTEQDSKDSTYSLSSTLTLSKADYEKHKVYACEVTHQGLSSPVTKSFNRGEC
# scFv: ELVVTQEPSLTTSPGGTVTLTCRSSTGAVTTSNYANWVQQKPGQAPRGLIGGTNKRAPGTPARFSGSLLGGKAALTITGVQPEDEAEYYCALWYSNLWVFGGGTKLTVLGGGGSGGGGSGGGGSEVQLVESGGGLVQPGGSLRLSCAASGFTFNTYAMNWVRQAPGKGLEWVARIRSKYNNYATYYADSVKDRFTISRDDSKNTAYLQMNNLKTEDTAMYYCVRHGNFGNSYVSWFAYWGQGTLVTVSSGEPKSSDKTHTCPPCPAPEAAGGPSVFLFPPKPKDTLMISRTPEVTCVVVDVSHEDPEVKFNWYVDGVEVHNAKTKPREEQYNSTYRVVSVLTVLHQDWLNGKEYKCKVSNKALAAPIEKTISKAKGQPREPQVYTLPPCREEMTKNQVSLWCLVKGFYPSDIAVEWESNGQPENNYKTTPPVLDSDGSFFLYSKLTVDKSRWQQGNVFSCSVMHEALHNRYTQKSLSLSPGK
# notes: also called anti-GPRC5D/anti-CD3 bispecific antibody GC35
# B2: GC39 (bispecific antibody, human IgG1, kappa, L234A L235A)
# heavy: EVQLVESGGGLVQPGGSRRVSCAASGFTFSSFGMHWVRQAPGKGLEWVAYISRGSSTIYYADTVKGRFTISRDNAKNSLYLQMNSLRAEDTAVYYCARSGYGSSSYYFDYWGQGTTVTVSSASTKGPSVFPLAPSSKSTSGGTAALGCLVKDYFPEPVTVSWNSGALTSGVHTFPAVLQSSGLYSLSSVVTVPSSSLGTQTYICNVNHKPSNTKVDKKVEPKSCDKTHTCPPCPAPEAAGGPSVFLFPPKPKDTLMISRTPEVTCVVVDVSHEDPEVKFNWYVDGVEVHNAKTKPREEQYNSTYRVVSVLTVLHQDWLNGKEYKCKVSNKALAAPIEKTISKAKGQPREPQVCTLPPSREEMTKNQVSLSCAVKGFYPSDIAVEWESNGQPENNYKTTPPVLDSDGSFFLVSKLTVDKSRWQQGNVFSCSVMHEALHNHYTQKSLSLSPGK
# light: EIVLTQSPATLSASPGERATMSCRASSSIRSSYLHWYQQKPGQSPRLWIYSTSNLASGVPARFSGSGSGTDYTLTISSLEPEDAAVYYCQQFSGYPLTFGGGTKVEIKRTVAAPSVFIFPPSDEQLKSGTASVVCLLNNFYPREAKVQWKVDNALQSGNSQESVTEQDSKDSTYSLSSTLTLSKADYEKHKVYACEVTHQGLSSPVTKSFNRGEC
# scFv: B1 scFv
# notes: also called anti-GPRC5D/anti-CD3 bispecific antibody GC39
# B3: Talquetamab (bispecific antibody, human IgG4 S228P, kappa, lambda, F234A L235A)
# heavy 1: not shown
# light 1: DIQMTQSPSSLSASVGDRVTITCKASQNVATHVGWYQQKPGKAPKRLIYSASYRYSGVPSRFSGSGSGTEFTLTISNLQPEDFATYYCQQYNRYPYTFGQGTKLEIKRTVAAPSVFIFPPSDEQLKSGTASVVCLLNNFYPREAKVQWKVDNALQSGNSQESVTEQDSKDSTYSLSSTLTLSKADYEKHKVYACEVTHQGLSSPVTKSFNRGEC
# heavy 2: EVQLVESGGGLVQPGGSLRLSCAASGFTFNTYAMNWVRQAPGKGLEWVARIRSKYNNYATYYAASVKGRFTISRDDSKNSLYLQMNSLKTEDTAVYYCARHGNFGNSYVSWFAYWGQGTLVTVSSASTKGPSVFPLAPCSRSTSESTAALGCLVKDYFPEPVTVSWNSGALTSGVHTFPAVLQSSGLYSLSSVVTVPSSSLGTKTYTCNVDHKPSNTKVDKRVESKYGPPCPPCPAPEAAGGPSVFLFPPKPKDTLMISRTPEVTCVVVDVSQEDPEVQFNWYVDGVEVHNAKTKPREEQFNSTYRVVSVLTVLHQDWLNGKEYKCKVSNKGLPSSIEKTISKAKGQPREPQVYTLPPSQEEMTKNQVSLTCLVKGFYPSDIAVEWESNGQPENNYKTTPPVLDSDGSFLLYSKLTVDKSRWQEGNVFSCSVMHEALHNHYTQKSLSLSLGK
# light 2: QTVVTQEPSLTVSPGGTVTLTCRSSTGAVTTSNYANWVQQKPGQAPRGLIGGTNKRAPGTPARFSGSLLGGKAALTLSGVQPEDEAEYYCALWYSNLWVFGGGTKLTVLGQPKAAPSVTLFPPSSEELQANKATLVCLISDFYPGAVTVAWKADSSPVKAGVETTTPSKQSNNKYAASSYLSLTPEQWKSHRSYSCQVTHEGSTVEKTVAPTECS
# notes: Four polypeptide chains (anti-GPRC5D-HC/LC, anti-CD3-HC/LC); made in house by in vitro assembly of the two parental monoclonal antibodies with 2-MEA; also called benchmark; BM
# Molecular target: T1, T cell surface CD3 (human, UniProt P07766 23-207)
# T1 construct: whole, on cells
# T1 sequence (P07766 23-207): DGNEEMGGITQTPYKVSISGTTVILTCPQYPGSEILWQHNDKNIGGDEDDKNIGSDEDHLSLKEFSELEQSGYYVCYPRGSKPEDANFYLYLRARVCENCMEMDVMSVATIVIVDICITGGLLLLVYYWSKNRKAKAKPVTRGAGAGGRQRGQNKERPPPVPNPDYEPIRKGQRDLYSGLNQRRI
# Assay: flow cytometry on human CD3+ T cells
# Experimental: Human PBMCs (peripheral blood mononuclear cells) were sorted for CD3⁺ T cells using CD3 magnetic beads (Miltenyi, Cat. No. 130-097-043). The cryopreserved PBMCs were thawed, and washed by centrifugation twice for counting. The running buffer (MACS, Cat. No. 130-091-221) was added at a ratio of 80 μL per 10⁷ cells, and the CD3 magnetic beads were added at a ratio of 20 μL CD3 magnetic beads per 10⁷ cells. The mixture was mixed well and incubated at 4° C. for 15 min. The running buffer was added at a ratio of 1-2 mL per 10⁷ cells for washing the cells. The mixture was centrifuged, the supernatant was discarded, and 500 μL of running buffer was added to resuspend the cell pellet. The LS sorting column (Miltenyi, Cat. No. 130-042-401) was placed on the MidiMACS Starting Kit (LS) magnetic rack (Miltenyi, Cat. No. 130-091-051). After rinsing, the cell suspension was added and washed thrice. The LS sorting column was removed from the magnetic rack and placed on a clean centrifuge tube and 5 mL buffer was added to collect the sorted CD3⁺ T cells.
# After counting, the CD3⁺ T cells were adjusted to a cell density of 1×10⁶-2×10⁶ cells/mL using running buffer, and seeded in a 96-well U-bottom cell culture plate (Costar, Cat. No. 3799) at 50 μL per well. Different concentrations of the anti-GPRC5D/anti-CD3 bispecific antibodies were prepared using running buffer. The highest concentration of the antibodies was 200 nM, and the antibodies were serially diluted 5-fold to obtain a total of 10 concentration gradients. The antibodies at different concentrations were added to the 96-well cell culture plate described above at 50 μL per well, mixed well and incubated at 4° C. for 1 h. The cells were washed with pre-cooled running buffer (MACS, Cat. No. 130-091-221), and then the supernatant was discarded. Pre-cooled PE-conjugated goat anti-human IgG Fcγ antibody (Jackson Immuno Research, Cat. No. 109-116-170) was added, and the cells were resuspended at 100 μL/well. The mixture was mixed well and incubated at 4° C. for 30 min. […]
row,Top(MFI),Binder
1,54700,B1
2,38000,B2
3,155000,B3
